Data reported in publication PMC6282390.

Assays:
[1] = test system: Dicer D1320A/D1709A (Homo sapiens); assay: EMSA; conditions: 5'-phosphate, 3'-OH; 50 mM Tris pH 7.6, 50 mM NaCl, 10% glycerol, 0.05% NP-40, 2 mM DTT, (0.5 mM EDTA for WT), 2 pM RNA (10 pM in Fig. 4 legend), 30 min at 4 °C
[2] = test system: Dicer WT (Homo sapiens); assay: EMSA; conditions: 5'-phosphate, 3'-OH; 50 mM Tris pH 7.6, 50 mM NaCl, 10% glycerol, 0.05% NP-40, 2 mM DTT, (0.5 mM EDTA for WT), 2 pM RNA (10 pM in Fig. 4 legend), 30 min at 4 °C

Work on pre-let-7a-1 yielded a Kd [1] of 9 nM and a Kd [2] of 5 nM.
